Reference: article PMC12014896 (2025)
Substitutions are numbered along the chain they refer to.

B1: COVIC-362 (antibody, V domains shown)
VH: EVQLVESGGGLVQPGGSLRLSCKASGISVAPHAVTWVRQAPGKGLEWIGVIASNADTYYASWAKGRFTISRDNSKNTLYLQMNSLRAEDTAVYYCARHPGSAGYGYTYYYAMDPWGQGTLVTVSS
VL: DIQMTQSPSSLSASVGDRVTITCQASERVFYGIDWYQQKPGKAPKLLIYGASALWHGVPSRFSGSGSGTDYTLTISSLQPEDFATYYCQQGYMVPIGFGGGTKVEIK
B2: COVIC-359 (antibody, V domains shown)
VH: B1 VH
VL: DIQMTQSPSSLSASVGDRVTITCKASEDIRYGLNWYQQKPGKAPKLLIYGANTLEAGVPSRFSGSGSGTDYTLTISSLQPEDFATYYCQQGYSTPLTFGGGTKVEIK
B3: COVIC-78 (antibody, V domains shown)
VH: QVQLVQSGAEVKKPGSSVKVSCKASGGTFSTSTFNWVRQAPGQGLEWMGGIIPIFGTVNYAQKFQGRVTITADESTGTAYMELSSLRSEDTAVYYCATLGQWDLLPRWGQGTLVTVSS
VL: KIVLTQSPDTLSLSPGERATLSCRASQSVDSNYLAWYQQKPGQAPRLLIYGASSRATGIPDRFSGSGSGTDFTLTISRLEPEDFAVYYCQQYGSSYTFGQGTKLEIK
B4: COVIC-185 (antibody, V domains shown)
VH: QVQLVQSGAEVKKPGASVRVSCKASGYTFTGYYMHWVRQAPGQGLEWMGWINPISDGTNYAQKFQGWVTMTRDTSISTVYMELSRLRSDDTAVYYCARGGSRCSGGNCYGWAYDAFDIWGQGTMITVSS
VL: QSALTQPASVSGSPGQSITISCTGTSSDVGGYNFVSWYQQHPGKAPKLMIYDVSKRPSGVSNRFSGSKSGNTASLTISGLQAEDEADCYCSSYTSSSTFVFGTGTKVTVL
B5: COVIC-337 (antibody, V domains shown)
VH: EVQLVQSGAEVKKPGSSVKVSCKASGGTFSMHTIRWVRQAPGQGLEWMGRIIPMLGIVNYAQKFQGRVTISADKSTSTAYMELSSLTSEDTAMYYCAKGSHDVFDIWGQGTMVTVSS
VL: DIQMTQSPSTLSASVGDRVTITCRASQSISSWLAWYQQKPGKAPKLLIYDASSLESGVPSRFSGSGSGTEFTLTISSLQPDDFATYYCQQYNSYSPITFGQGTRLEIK
B6: COVIC-119 (antibody)
chain 1: QVQLQESGGGLVQAGGSLRLSCAASGRTFSEYAMGWFRQAPGKEREFVATISWSGGSTYYTDSVKGRFTISRDNAKNTVYLQMNSLKPDDTAVYYCAAAGLGTVVSEWDYDYDYWGQGTQVTVSSGGSGGSQVQLQESGGGLVQAGGSLRLSCAASGRTFSEYAMGWFRQAPGKEREFVATISWSGGSTYYTDSVKGRFTISRDNAKNTVYLQMNSLKPDDTAVYYCAAAGLGTVVSEWDYDYDYWGQGTQVTVSSGGGGSGGGGSASTKGPSVFPLAPSSKSTSGGTAALGCLVKDYFPEPVTVSWNSGALTSGVHTFPAVLQSSGLYSLSSVVTVPSSSLGTQTYICNVNHKPSNTKVDKKVEPKSCDKTHTKKKPLDGEYFTLQIRGRERFEMFRELNEALELKDAQAGKEPG
chain 2: QVQLQESGGGLVQAGGSLRLSCAASGRTFSEYAMGWFRQAPGKEREFVATISWSGGSTYYTDSVKGRFTISRDNAKNTVYLQMNSLKPDDTAVYYCAAAGLGTVVSEWDYDYDYWGQGTQVTVSSGGSGGSQVQLQESGGGLVQAGGSLRLSCAASGRTFSEYAMGWFRQAPGKEREFVATISWSGGSTYYTDSVKGRFTISRDNAKNTVYLQMNSLKPDDTAVYYCAAAGLGTVVSEWDYDYDYWGQGTQVTVSSGGGGSGGGGSKRTVAAPSVFIFPPSDEQLKSGTASVVCLLNNFYPREAKVQWKVDNALQSGNSQESVTEQDSKDSTYSLSSTLTLSKADYEKHKVYACEVTHQGLSSPVTKSFNRGEC
B7: COVIC-147 (antibody, V domains shown)
VH: EVQLVESGGGLIQPGGSLRLSCAASGFTVSSIYMSWVRQAPGKGLEWVSIIYSRGSTDYADSVKGRFTISRDISKNTLYLQMNSLRAEDTAVYYCARDGTMVRGVHAFDIWGQGTMVTVSS
VL: DIQMTQSPPSLSASIGDRVTITCQASQDISNYLNWYQQKPGKAPKLLIYDASNLETGVPSRFSGSGSGTDFTLTISNLQPEDIVTYYCQQYDNLPSSFGQGTKLEIKR
B8: COVIC-23 (antibody, V domains shown)
VH: EVQLLESGGGLVQPGGSLRLSCAASGFTFSNYPMNWVRQAPGKGLEWVSTISGSGGNTFYADSVKGRFTISRDNSKNTLYLQMNSLRAEDTAVYYCVRHDEYSFDYWGQGTLVTVSS
B9: COVIC-123 (antibody)
chain: QVQLQESGGGLVQAGGSLRLSCAASGRTFSEYAMGWFRQAPGKEREFVATISWSGGSTYYTDSVKGRFTISRDNAKNTVYLQMNSLKPDDTAVYYCAAAGLGTVVSEWDYDYDYWGQGTQVTVSSGGSGGSQVQLQESGGGLVQAGGSLRLSCAASGRTFSEYAMGWFRQAPGKEREFVATISWSGGSTYYTDSVKGRFTISRDNAKNTVYLQMNSLKPDDTAVYYCAAAGLGTVVSEWDYDYDYWGQGTQVTVSSGGGGSGGGGSEPKSCDKTHTCPPCPAPELLGGKKKPLDGEYFTLQIRGRERFEMFRELNEALELKDAQAGKEPGGGGGSGGGGSQVQLQESGGGLVQAGGSLRLSCAASGRTFSEYAMGWFRQAPGKEREFVATISWSGGSTYYTDSVKGRFTISRDNAKNTVYLQMNSLKPDDTAVYYCAAAGLGTVVSEWDYDYDYWGQGTQVTVSS
B10: COVIC-332 (antibody, V domains shown)
VH: QVQLVQSGAEVKKPGSSLKVSCKASGGTFNNFAISWVRQAPGQGPEWMGRINPILSAAKYAQKFQGRLTITADKSTTTAYMELSSLRSEDTAVYYCAPTGTGESWWFDPWGQGTLVTVSS
VL: QSVLTQPPSASGTPGQRVTISCSGSSSNIGTNYVYWYQQLPGTAPKVLIYGNNQRPSGVPDRFSGSKSGSSASLAISGLRSEDEADYYCAAWDDSLSGPVFGGGTKLTVL
B11: COVIC-263 (antibody, V domains shown)
VH: QVQLQESGPRLVKPSETLSLTCTVSGGSISGSNYFWGWIRQPPGKGLEWIGTIYYGGSTYYNPSLKSRVTISVDTSENQFSLKLSSVTAADTAVYYCANLAWLRGYFDYWGQGTLVTVSS
VL: NFMLTQPHSVSESPGKTVTISCTRSSGSIASNYVQWYQQRPGSAPTTVIYEDNQRPSGVPDRFSGSIDSSSNSVSLTISGLKTEDEADYYCQSYDSSNWVFGGGTKLTVLG
B12: COVIC-334 (antibody, V domains shown)
VH: QMQLVQSGPEVKKPGTSVKVSCKASGFTFSSSAVQWVRQARGQGLEWIGWIVVGSGNANYAQKLQERVSITRDMSTSTAYMELSSLRPEDTAVYYCAAPHCSRTICHDGFDMWGQGTMVTVSS
VL: EIVLTQSPGTLSLSPGERATLSCRASQSVRSSYLAWYQQKPGQAPRLLMFVASSRATGIPDRFSGSGSGTDFTLTISRLEPEDFAVYYCQQYDTSPWTFGQGTKVEIK
B13: COVIC-159 (antibody, V domains shown)
VH: EVQLVESGGGLIQPGGSLRLSCAASGFTVSSNYMNWVRQAPGKGLEWVSVIYSGGSTYYADSVKGRFTISRDNSKNTLFLQMNSLRAEDSAVYYCARDLGPYGVDVWGQGTTVTVSS
VL: DIQLTQSPSFLSASVGDRVTITCWASQGISSYLAWYQQKPGKAPKLLIYAASTLQSGVPSRFSGSGSGTEFTLTISSLQPEDFATYYCQELNSYPLTFGQGTRLEIKR
B14: COVIC-35 (antibody, V domains shown)
VH: EVQLVESGGGVVQPGRSLRLSCAASGFTFSSYAMHWVRQAPGKGLEWVAVISYDGSYKYYADSVKGRFTISRDNSKNTLYLQMNSLTAEDTAVYYCAREGSRQWLVIYFDYWGQGTLVTVSS
VL: AIRMTQSPSSLSASVGDRVTITCRASQSISSYLNWYQQKPGKAPKLLIYAASSLQSGVPSRFSGSGSGTDFTLTISSLQPEDFATYYCQQSYTTFIYTFGQGTKLEIK
B15: COVIC-299 (antibody, V domains shown)
VH: EVQLVESGGGLVQPGGSLRLSCAASGLIVSRNYMSWVRQAPGKGLEWVSVIYSGGSTFYADSVKGRFTISRDNSKNTLYLQMNSLRAEDTAVYYCARDLNIAGGFDIWGQGTMVTVSS
VL: DIQLTQSPSFLSASVGDRVTITCRASQGISSYLAWYQQKPGKAPKLLIYAASTLQSGVPSRFSGSGSGTDFTLTISSLQPEDFATYYCQHLNIDPITFGQGTRLEIK
B16: COVIC-42 (antibody, V domains shown)
VH: B15 VH with V12I, L27V, R31S, F58Y, N100D, I101V, A102S, F105M, I107V, M113T
VL: not shown
B17: COVIC-152 (antibody, V domains shown)
VH: QVQLQESGPGLVKPSQTLSLTCTVSGGSISSYGYYWSWIRQHPGKGLEWIGYIYYSGSTYYNPSLKSRVTMSVDTSKNQLSLRLNSVSAADTAVYYCARDFGGNSNYFDYWGQGTLVTVSS
VL: AIQLTQSPSSLSASVGDRVTITCRASQGISSALAWYQQKPGKAPNLLIYDASSLESGVPSRFSGSGSGTDFTLTISSLQPEDFATYYCQQFNSSPLTFGGGTKVEIKR
B18: COVIC-303 (antibody, V domains shown)
VH: QVTLKESGPVLVKPTETLTLTCTVSGFSLSNARMGVSWIRQPPGKALEWLAHIFSNGEKSYSTSLKSRLTISKDTSKSQVVLTMTNMDPVDTATYYCARTLDYYDSSGYLVGGAFDIWGQGTMVTVSS
VL: QPGLTQPPSVSLAPGQTARITCGGNNIGSKSVHWYQQKPGQAPVLVVYDDSDRPSGIPERFSGSNAGNTATLTISRVEAGDEADYYCQVWDSRSDQYVFGTRTKLTVLG
B19: COVIC-61 (antibody)
chain: QVQLQESGGGLVQAGGSLRLSCAASGRTFSEYAMGWFRQAPGKEREFVATISWSGGSTYYTDSVKGRFTISRDNAKNTVYLQMNSLKPDDTAVYYCAAAGLGTVVSEWDYDYDYWGQGTQVTVSSGGSGGSQVQLQESGGGLVQAGGSLRLSCAASGRTFSEYAMGWFRQAPGKEREFVATISWSGGSTYYTDSVKGRFTISRDNAKNTVYLQMNSLKPDDTAVYYCAAAGLGTVVSEWDYDYDYWGQGTQVTVSSGGGGSGGGGSKKKPLDGEYFTLQIRGRERFEMFRELNEALELKDAQAGKEPG
B20: COVIC-28 (antibody, V domains shown)
VH: QVQLVQSGAEVKKPGASVKVSCKASGYTFTSYYMHWVRQAPGQGLEWMGIINSSGGSTSYAQKFQGRVTMTRDTSTSTVYMELSSLRSEDTAVYYCARPPRNYYDRSGYYQRAEYFQHWGQGTLVTVSS
VL: DIQLTQSPSSLSASVGDRVTITCQASQDISNYLNWYQQRPGKAPKLLIYDASNLETGVPSRFSGSGSGTDFTFTISSLQPEDIATYYCQQYDNPPLTFGGGTKLEIK

target: SARS-CoV-2 spike RBD (Wuhan-Hu-1) (Severe acute respiratory syndrome …, UniProt P0DTC2); test: SPR

B1 and B2 are within 1.5-fold of each other in Kd: 0.00985 nM for the first, 0.0139 nM for the second.

Compared with B3, B4 is 32-fold lower in Kd: 393 nM for the first, 12.3 nM for the second.

Going from B5 to B6, the Kd rises from 3.02 nM to 179 nM (59-fold). The first binds more tightly here.

Compared with B7, B8 is 31-fold higher in Kd: 2.3 nM for the first, 71.3 nM for the second. The first binds more tightly here.

First: B9
Second: B10
The Kd of the first is 1900-fold higher: 206 nM for the first, 0.111 nM for the second. The second binds more tightly here.

Compared with B11, B12 is 1.5-fold lower in Kd: 0.0861 nM for the first, 0.0568 nM for the second.

First: B13
Second: B14
The Kd of the first is 8.9-fold higher: 24.9 nM for the first, 2.81 nM for the second.

Compared with B15, B16 is 33-fold higher in Kd: 0.332 nM for the first, 11 nM for the second. The first binds more tightly here.

Compared with B17, B18 is 18-fold lower in Kd: 3.02 nM for the first, 0.168 nM for the second. The second binds more tightly here.

First: B19
Second: B20
The Kd of the first is 16-fold higher: 195 nM for the first, 12.3 nM for the second.
